The values that follow come from publication PMC10786891, “Massively parallel profiling of RNA-targeting CRISPR-Cas13d”.

B1: target 1 insG 3' of 8,insA 3' of 7 (mixed)
RNA 1: CACCCGUGCAAAAAUGCAGGGGUCUAAAACUGAGCGGAUAACCUCUCUAUGG
RNA 2: GGGAAUGGAUCCACAUCUACGAAUUCGUACCAUAGAGAGGUUAUGCACGCUCACCGAGAUCGGAAGAGCACACGU
B2: target 1 insC 3' of 17,insU 3' of 1 (mixed)
RNA 1: B1 RNA 1
RNA 2: GGGAAUGGAUCCACAUCUACGAAUUCGUACCAUAGCAGAGGUUAUCCGCUCAUCCGAGAUCGGAAGAGCACACGU
B3: target 1 G13U,G15U (mixed)
RNA 1: B1 RNA 1
RNA 2: GGGAAUGGAUCCACAUCUACGAAUUCGUACCAUAGAUAUGUUAUCCGCUCACCGAGAUCGGAAGAGCACACGU
B4: target 1 insC 3' of 13,insU 3' of 12 (mixed)
RNA 1: B1 RNA 1
RNA 2: B1 RNA 2 with G40C, U41G, A43U, G45A, C46U, A47C
B5: target 1 insA 3' of 3,insA 3' of 3 (mixed)
RNA 1: B1 RNA 1
RNA 2: B1 RNA 2 with G45C, A47G, G49U, C50A, U51A
B6: target 1 G12A,A14C (mixed)
RNA 1: B1 RNA 1
RNA 2: B3 RNA 2 with U37G, A38C, U39G, G40A
B7: target 1 insG 3' of 14,insU 3' of 2 (mixed)
RNA 1: B1 RNA 1
RNA 2: B2 RNA 2 with C36A, A37G, G38A, A39G, A52U, U53A
B8: target 1 insC 3' of 20,insG 3' of 19 (mixed)
RNA 1: B1 RNA 1
RNA 2: B1 RNA 2 with U33C, A34U, G40A, U41G, U42G, A43U, G45A, C46U, A47C
B9: target 1 insA 3' of 22,insU 3' of 6 (mixed)
RNA 1: B1 RNA 1
RNA 2: GGGAAUGGAUCCACAUCUACGAAUUCGUACACAUAGAGAGGUUAUCCUGCUCACCGAGAUCGGAAGAGCACACGU
B10: target 1 insC 3' of 19,insA 3' of 15 (mixed)
RNA 1: B1 RNA 1
RNA 2: GGGAAUGGAUCCACAUCUACGAAUUCGUACCAUCAGAGAAGGUUAUCCGCUCACCGAGAUCGGAAGAGCACACGU
B11: target 1 insC 3' of 17,insC 3' of 1 (mixed)
RNA 1: B1 RNA 1
RNA 2: B2 RNA 2 with U53C
B12: target 1 C4G,G12C (mixed)
RNA 1: B1 RNA 1
RNA 2: B3 RNA 2 with U37G, U39G, G40C, C48G
B13: target 1 insA 3' of 17,insG 3' of 8 (mixed)
RNA 1: B1 RNA 1
RNA 2: B9 RNA 2 with A31C, C32A, A33U, U34A, A35G, G36A, C46G, U48C
B14: target 1 insU 3' of 22,insC 3' of 3 (mixed)
RNA 1: B1 RNA 1
RNA 2: B9 RNA 2 with A31U, U48G, G49C, C50U, U51C
B15: target 1 C2G,U19A (mixed)
RNA 1: B1 RNA 1
RNA 2: B3 RNA 2 with U33A, U37G, U39G, C50G
B16: target 1 U8C,U10C (mixed)
RNA 1: B1 RNA 1
RNA 2: B3 RNA 2 with U37G, U39G, U42C, U44C
B17: target 1 insG 3' of 21,insA 3' of 19 (mixed)
RNA 1: B1 RNA 1
RNA 2: B10 RNA 2 with A32G, U33A, C34U, G36A, A37G, G38A, A39G
B18: target 1 C4A,C22G (mixed)
RNA 1: B1 RNA 1
RNA 2: B3 RNA 2 with C30G, U37G, U39G, C48A
B19: target 1 insA 3' of 10,insA 3' of 7 (mixed)
RNA 1: B1 RNA 1
RNA 2: B1 RNA 2 with U44A, G45U
B20: target 1 insC 3' of 19,insU 3' of 6 (mixed)
RNA 1: B1 RNA 1
RNA 2: B9 RNA 2 with A31C, C32A, A33U, U34C
B21: target 1 insU 3' of 22,insA 3' of 22 (mixed)
RNA 1: B1 RNA 1
RNA 2: B10 RNA 2 with C31U, U33C, C34A, A35U, G36A, A37G, G38A, A39G
B22: target 1 insA 3' of 22,insU 3' of 5 (mixed)
RNA 1: B1 RNA 1
RNA 2: B9 RNA 2 with U48G, G49U
B23: target 1 insG 3' of 16,insG 3' of 2 (mixed)
RNA 1: B1 RNA 1
RNA 2: B2 RNA 2 with C36A, A37G, A52G, U53A
B24: target 1 U10A,C22U (mixed)
RNA 1: B1 RNA 1
RNA 2: B3 RNA 2 with C30U, U37G, U39G, U42A
B25: target 1 insU 3' of 18,insC 3' of 14 (mixed)
RNA 1: B1 RNA 1
RNA 2: B10 RNA 2 with C34A, A35U, A40C
B26: target 1 G12U,U19C (mixed)
RNA 1: B1 RNA 1
RNA 2: B3 RNA 2 with U33C, U37G, U39G, G40U
B27: target 1 C6A,U8G (mixed)
RNA 1: B1 RNA 1
RNA 2: B3 RNA 2 with U37G, U39G, U44G, C46A
B28: target 1 insG 3' of 16,insA 3' of 6 (mixed)
RNA 1: B1 RNA 1
RNA 2: B9 RNA 2 with A31C, C32A, A33U, U34A, A35G, G36A, A37G, U48A
B29: target 1 insC 3' of 12,insG 3' of 11 (mixed)
RNA 1: B1 RNA 1
RNA 2: B1 RNA 2 with U41C, A43G, G45A, C46U, A47C
B30: target 1 C2A,G5U (mixed)
RNA 1: B1 RNA 1
RNA 2: B3 RNA 2 with U37G, U39G, G47U, C50A
B31: target 1 insG 3' of 14,insA 3' of 12 (mixed)
RNA 1: B1 RNA 1
RNA 2: B1 RNA 2 with U41G, U42A, A43U, G45A, C46U, A47C
B32: target 1 insU 3' of 9,insA 3' of 7 (mixed)
RNA 1: B1 RNA 1
RNA 2: B1 RNA 2 with G45U

Numbering of substitutions follows the chain as printed. In names and notes the source's numbering stands.

The term Kd denotes the free concentration of one partner at which half of the binding sites on the other are occupied at equilibrium, for simple one-to-one binding. The low end stands for a tighter complex, the high end for a looser complex.

The target in this series is T1, EsCas13d, nuclease-dead (Eubacterium siraeum, UniProt B0MS50, R295A;H300A;R849A;H854A).
T1 sequence: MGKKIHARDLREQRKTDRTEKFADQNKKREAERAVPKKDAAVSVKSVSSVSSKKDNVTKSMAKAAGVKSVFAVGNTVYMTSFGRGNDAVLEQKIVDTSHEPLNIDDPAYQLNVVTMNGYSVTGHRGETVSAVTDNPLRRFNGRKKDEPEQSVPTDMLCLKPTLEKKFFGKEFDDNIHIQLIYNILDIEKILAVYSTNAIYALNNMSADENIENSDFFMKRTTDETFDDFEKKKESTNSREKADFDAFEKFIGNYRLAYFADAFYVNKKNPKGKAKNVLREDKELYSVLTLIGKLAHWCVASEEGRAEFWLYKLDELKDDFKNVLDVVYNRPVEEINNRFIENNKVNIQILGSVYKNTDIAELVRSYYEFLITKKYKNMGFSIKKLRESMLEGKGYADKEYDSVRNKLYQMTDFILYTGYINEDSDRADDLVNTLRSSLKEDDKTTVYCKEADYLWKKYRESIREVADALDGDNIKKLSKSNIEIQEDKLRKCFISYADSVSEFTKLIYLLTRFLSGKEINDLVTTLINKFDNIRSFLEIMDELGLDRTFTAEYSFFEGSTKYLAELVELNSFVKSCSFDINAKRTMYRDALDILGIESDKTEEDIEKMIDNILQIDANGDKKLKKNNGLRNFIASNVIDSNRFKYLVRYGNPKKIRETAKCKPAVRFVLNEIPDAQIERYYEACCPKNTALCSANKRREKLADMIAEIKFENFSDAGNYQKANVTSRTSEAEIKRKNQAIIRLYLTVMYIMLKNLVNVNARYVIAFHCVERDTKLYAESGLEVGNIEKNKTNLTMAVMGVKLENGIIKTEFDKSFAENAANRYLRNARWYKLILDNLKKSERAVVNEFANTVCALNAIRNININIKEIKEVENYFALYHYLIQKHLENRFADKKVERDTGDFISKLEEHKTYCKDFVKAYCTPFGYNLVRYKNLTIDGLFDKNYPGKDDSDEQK
The series can be described thus: crRNA (strand 1, pre-loaded); Mg2+; 40 mM Tris-HCl pH 7.5, 150 mM NaCl, 6 mM MgCl2, 1 mM DTT, 0.1% Tween-20, 0.2 mg/ml BSA; 25 C; 10 min per concentration, then washed. Particulars: tags: His6-TwinStrep-SUMO cleaved; N-terminal SNAP kept (SNAP-Surface 488); label: 3' end held by stalled T7 RNA polymerase.
In turn, B1 gave a Kd of 10.6 ± 0.6 nM.
Molecule B2 yielded a Kd of 66 ± 21 nM. Against the preceding molecule, the Kd is about 6.2-fold higher.
B3 had a Kd of 55 ± 19 nM.
Molecule B4 showed a Kd of 11.1 ± 0.4 nM.
The figure for B5 is 7.5 ± 0.6 nM; for B6 it is 30.5 ± 2.6 nM.
To B7 belongs 12.5 ± 0.8 nM; to B8, 47 ± 7 nM; to B9, 13.6 ± 0.6 nM.
As for B10, binding was put at a Kd of 36 ± 4 nM.
B11 yielded a Kd of 39 ± 4 nM.
Regarding B12, binding was put at a Kd of 18 ± 4 nM.
B13 returned a Kd of 14.7 ± 1.7 nM.
The figure for B14 is 28 ± 6 nM; for B15 it is 24.9 ± 2.7 nM.
In turn, B16 gave a Kd of 22.4 ± 1.3 nM.
The figure for B17 is 64 ± 15 nM.
In turn, B18 gave a Kd of 25 ± 8 nM.
The figure for B19 is 10.4 ± 0.5 nM; for B20 it is 46.6 ± 2.9 nM; for B21 it is 4.11 ± 0.31 nM.
To B22 belongs 28 ± 7 nM; to B23, 14.4 ± 2.5 nM.
On to B24, for which the Kd was determined as 20.8 ± 2.8 nM.
As for B25, the Kd came to 73 ± 23 nM. This Kd lies about 3.5-fold higher than the previous one.
For B26, binding was put at a Kd of 42 ± 6 nM.
The figure for B27 is 12.8 ± 0.7 nM; for B28 it is 15 ± 0.6 nM.
For the molecule B29, binding was characterised by a dissociation constant (Kd) of 11.7 ± 0.8 nM.
B30 returned a Kd of 24 ± 1.9 nM. Compared with the last molecule, the Kd is about 2.1-fold higher.
B31 returned a dissociation constant Kd of 23.7 ± 1.7 nM.
B32: the affinity, expressed as Kd, was 9.5 ± 0.4 nM.
